Data from IntAct's records for PubMed 19804756.

Experiments:
nbs1_schpo nbs1 = nbs1_schpo nbs1 (UniProt O43070)
nbn_human NBN = nbn_human NBN (UniProt O60934)
nbn_human NBN, sequence (O60934 whole entry): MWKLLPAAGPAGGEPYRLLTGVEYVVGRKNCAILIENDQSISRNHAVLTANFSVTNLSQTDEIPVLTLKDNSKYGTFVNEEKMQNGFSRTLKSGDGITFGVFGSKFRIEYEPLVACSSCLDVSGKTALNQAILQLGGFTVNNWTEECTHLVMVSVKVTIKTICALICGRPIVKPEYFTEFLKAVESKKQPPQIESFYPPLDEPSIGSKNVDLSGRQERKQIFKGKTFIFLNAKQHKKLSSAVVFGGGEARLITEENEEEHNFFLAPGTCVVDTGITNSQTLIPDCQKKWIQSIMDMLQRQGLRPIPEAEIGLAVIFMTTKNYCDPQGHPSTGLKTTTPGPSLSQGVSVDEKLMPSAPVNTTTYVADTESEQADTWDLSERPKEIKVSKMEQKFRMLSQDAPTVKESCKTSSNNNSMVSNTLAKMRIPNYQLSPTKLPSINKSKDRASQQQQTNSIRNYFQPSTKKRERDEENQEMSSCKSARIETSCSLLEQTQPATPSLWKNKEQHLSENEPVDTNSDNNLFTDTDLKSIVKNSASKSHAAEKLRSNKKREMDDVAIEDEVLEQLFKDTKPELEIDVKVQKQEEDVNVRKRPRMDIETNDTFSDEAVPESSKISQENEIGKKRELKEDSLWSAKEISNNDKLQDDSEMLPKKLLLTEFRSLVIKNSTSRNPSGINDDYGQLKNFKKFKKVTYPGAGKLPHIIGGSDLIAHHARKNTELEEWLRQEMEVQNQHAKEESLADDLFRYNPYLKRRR

nbs1_schpo nbs1, sequence (O43070 whole entry): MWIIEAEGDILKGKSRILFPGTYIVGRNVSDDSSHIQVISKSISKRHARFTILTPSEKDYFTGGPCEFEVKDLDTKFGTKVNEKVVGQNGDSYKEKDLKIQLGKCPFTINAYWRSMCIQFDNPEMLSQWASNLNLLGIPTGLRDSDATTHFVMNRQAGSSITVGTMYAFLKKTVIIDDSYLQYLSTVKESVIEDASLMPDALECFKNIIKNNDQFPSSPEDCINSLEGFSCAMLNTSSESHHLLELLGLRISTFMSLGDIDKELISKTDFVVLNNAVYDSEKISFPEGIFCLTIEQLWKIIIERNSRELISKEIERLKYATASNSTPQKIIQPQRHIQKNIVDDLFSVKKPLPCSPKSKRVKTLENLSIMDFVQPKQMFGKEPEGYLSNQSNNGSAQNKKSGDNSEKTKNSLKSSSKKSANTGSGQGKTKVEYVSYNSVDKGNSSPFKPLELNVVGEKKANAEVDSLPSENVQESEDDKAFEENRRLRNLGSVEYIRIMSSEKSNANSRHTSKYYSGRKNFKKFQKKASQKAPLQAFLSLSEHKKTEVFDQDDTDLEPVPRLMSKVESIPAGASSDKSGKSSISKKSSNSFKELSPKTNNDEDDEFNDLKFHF

Row | effect of a mutation on the interaction (nbs1_schpo nbs1) | effect of a mutation on the interaction (nbn_human NBN) | Substance
1 | decreasing interaction | – | Mediator of DNA damage checkpoint protein 1 (Homo sapiens), Q14676 E334A
2 | – | decreasing interaction | Mediator of DNA damage checkpoint protein 1 (Homo sapiens), Q14676 T331S
